Source: IntAct's records for PubMed 22056770

B1: Flagellar biosynthesis protein FlhF (Bacillus subtilis), Q01960 (parent)
chain: MKIKKFTAASMQEAALLIRKELGNEAVILNSKKIKKRKWFGLVNKPAVEVIAVLDQDFLEKKTPQKAAEPKQTLKTPVSSPKIEERTYPPQIPAQQELGDFSAYQSVLPEPLRKAEKLLQETGIKESTKTNTLKKLLRFSVEAGGLTEENVVGKLQEILCDMLPSADKWQEPIHSKYIVLFGSTGAGKTTTLAKLAAISMLEKHKKIAFITTDTYRIAAVEQLKTYAELLQAPLEVCYTKEEFQQAKELFSEYDHVFVDTAGRNFKDPQYIDELKETIPFESSIQSFLVLSATAKYEDMKHIVKRFSSVPVNQYIFTKIDETTSLGSVFNILAESKIGVGFMTNGQNVPEDIQTVSPLGFVRMLCR
partner: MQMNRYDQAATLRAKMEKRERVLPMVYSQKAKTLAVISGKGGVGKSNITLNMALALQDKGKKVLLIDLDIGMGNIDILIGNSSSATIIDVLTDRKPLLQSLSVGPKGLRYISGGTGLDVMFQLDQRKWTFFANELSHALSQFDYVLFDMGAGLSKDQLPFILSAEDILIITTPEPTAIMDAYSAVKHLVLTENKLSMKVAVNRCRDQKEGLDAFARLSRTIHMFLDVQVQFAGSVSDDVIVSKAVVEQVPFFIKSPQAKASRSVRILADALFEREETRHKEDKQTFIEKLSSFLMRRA
B2: Flagellum site-determining protein YlxH (Bacillus subtilis), P40742 (parent)
chain: B1 partner
partner: B1 chain

Variants of: B1
Settings: with ylxh_bacsu ylxH

effect of a mutation on the interaction | Variant
disrupting interaction | MKIKKFTAASMQEAALLIRKELGNEAVILNSKKIKKRKWFGLVNKPAVEVIAVLDQDFLEKKTPQKAAEPKQTLKTPVSSPKIEERTYPPQIPAQQELGDFSAYQSVLPEPLRKAEKLLQETGIKESTKTNTLKKLLRFSVEAGGLTEENVVGKLQEILCDMLPSADKWQEPIHSKYIVLFGSTGAGKTTTLAKLAAISMLEKHKKIAFITTDTYAIAAVEQLKTYAELLQAPLEVCYTKEEFQQAKELFSEYDHVFVDTAGRNFKDPQYIDELKETIPFESSIQSFLVLSATAKYEDMKHIVKRFSSVPVNQYIFTKIDETTSLGSVFNILAESKIGVGFMTNGQNVPEDIQTVSPLGFVRMLCR [R216A]

Variants of: B2
Settings: with flhf_bacsu flhF

effect of a mutation on the interaction | Variant
disrupting interaction | MQMNRYDAAATLRAKMEKRERVLPMVYSQKAKTLAVISGKGGVGKSNITLNMALALQDKGKKVLLIDLDIGMGNIDILIGNSSSATIIDVLTDRKPLLQSLSVGPKGLRYISGGTGLDVMFQLDQRKWTFFANELSHALSQFDYVLFDMGAGLSKDQLPFILSAEDILIITTPEPTAIMDAYSAVKHLVLTENKLSMKVAVNRCRDQKEGLDAFARLSRTIHMFLDVQVQFAGSVSDDVIVSKAVVEQVPFFIKSPQAKASRSVRILADALFEREETRHKEDKQTFIEKLSSFLMRRA [Q8A]
